Measured values published in the supplement of paper PMC10724198.
± gives the standard deviation of the averaged measurements.

The sequences below were run on Saccharomyces cerevisiae (assay: protein stability index of tFT-peptide fusion (C-terminal peptide) (PSI (0-1 scale)); higher = more stable (slower turnover)). Conditions: genetic background: wild type; temperature: 30 C.
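Note: PSI is a weighted mean of sequencing reads over stability bins, variants kept only with over 10 reads, mCherry proximal and sfGFP distal, peptide attached via GGGS linker.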

LPAPSPAVPSPP and LPAPSPSPHPPA are within error of each other in protein stability index: 0.668 ± 0.033 for the first, 0.689 ± 0.026 for the second.

LPCGRGQLVGSQ and LPCTTPLLFTPV are within error of each other in protein stability index: 0.677 ± 0.032 for the first, 0.706 ± 0.21 for the second.

LPDLSPIRRCPL and LPERASQARGRP are the same in protein stability index: 0.694 ± 0.04 for the first, 0.694 ± 0.17 for the second.

Going from LPFRLARLSQEG to LPGGRRPSQCPA, the protein stability index falls from 0.849 ± 0.016 to 0.645 ± 0.01.

LPILPQHQPTTD and LPKARPRTNPPP are within error of each other in protein stability index: 0.674 ± 0.014 for the first, 0.712 ± 0.15 for the second.

LPKSRIGPILNG and LPLALSAPPAQP are within error of each other in protein stability index: 0.743 ± 0.12 for the first, 0.683 ± 0.042 for the second.

LPLAMTTIGISL and LPLCSPPAPPSS are within error of each other in protein stability index: 0.675 ± 0.011 for the first, 0.666 ± 0.026 for the second.

LPLIRQLPNPPP and LPLLALPLALHP are within error of each other in protein stability index: 0.648 ± 0.031 for the first, 0.653 ± 0.0077 for the second.

LPLMVPIPLLLP and LPLPIPPFPCPP are within error of each other in protein stability index: 0.648 ± 0.024 for the first, 0.686 ± 0.017 for the second.

LPLPSTYHHISK and LPLWQHPTKPVH are within error of each other in protein stability index: 0.68 ± 0.063 for the first, 0.64238 ± 8.1e-05 for the second.

Compared with LPLYYPPGTREL, LPPAIPSTPPTP is higher in protein stability index: 0.708 ± 0.027 for the first, 0.756 ± 0.0087 for the second.

LPPASHLPYLVL and LPPLAPPPPPLP are within error of each other in protein stability index: 0.717 ± 0.019 for the first, 0.688 ± 0.026 for the second.

LPPLCLPPPAHP and LPPLPPPPPLPL are within error of each other in protein stability index: 0.733 ± 0.026 for the first, 0.688 ± 0.11 for the second.

LPPLSLSPPLPP and LPPLTSPSIVRG are within error of each other in protein stability index: 0.689 ± 0.049 for the first, 0.749 ± 0.04 for the second.

LPPPFPSPPRPP and LPPPLPPRPSPP are within error of each other in protein stability index: 0.617 ± 0.14 for the first, 0.728 ± 0.089 for the second.

LPPPPAPSSAPL and LPPPPLPPPVFP are within error of each other in protein stability index: 0.735 ± 0.14 for the first, 0.74 ± 0.018 for the second.

Compared with LPPPPPHRTGDC, LPPPPPLPSSPL is higher in protein stability index: 0.5859 ± 0.0028 for the first, 0.685 ± 0.018 for the second.

Compared with LPPPPRPPPPPP, LPPPPSASPPRP is higher in protein stability index: 0.663 ± 0.021 for the first, 0.794 ± 0.06 for the second.

LPPPPTAPPPSR and LPPPRPASPGSP are within error of each other in protein stability index: 0.719 ± 0.058 for the first, 0.642 ± 0.051 for the second.

LPPPRPGLPFTF and LPPPRSPPPLSA are within error of each other in protein stability index: 0.704 ± 0.057 for the first, 0.622 ± 0.057 for the second.

First: LPPPSLPGPSAS
Second: LPPPYPRPPPFR
The protein stability index of the first is higher: 0.786 ± 0.059 for the first, 0.68 ± 0.005 for the second.

LPPRPLPPPSRT and LPPRPPTHSPPP are within error of each other in protein stability index: 0.7 ± 0.076 for the first, 0.722 ± 0.011 for the second.

LPPRTHSPLSSP and LPPSPLMTRTCA are within error of each other in protein stability index: 0.636 ± 0.11 for the first, 0.6343 ± 0.0041 for the second.

First: LPPSSLTLSPSS
Second: LPPSSSPCPLPS
The protein stability index of the first is lower: 0.675 ± 0.045 for the first, 0.7304 ± 0.0053 for the second.

LPRLPPPPHPCP and LPRLTPARPRHH are within error of each other in protein stability index: 0.741 ± 0.013 for the first, 0.7 ± 0.1 for the second.

Compared with LPRPPAPPMRYM, LPRSPPCCHVND is lower in protein stability index: 0.70928 ± 9.3e-05 for the first, 0.628 ± 0.02 for the second.

LPRVSMTPTRVG and LPSHRSPITSFL are within error of each other in protein stability index: 0.6535 ± 0.0029 for the first, 0.668 ± 0.14 for the second.

LPSLHPPPSPQP and LPSPHPPPPPLS are within error of each other in protein stability index: 0.777 ± 0.08 for the first, 0.673 ± 0.13 for the second.

Compared with LPSSFLPVPAPP, LPTLPPPTPYAL is lower in protein stability index: 0.6976 ± 0.00082 for the first, 0.652 ± 0.044 for the second.

LPTPVRRPPSPP and LPTSPMSCHTLT are within error of each other in protein stability index: 0.71 ± 0.028 for the first, 0.76 ± 0.088 for the second.

First: LPVSISIGNVGR
Second: LPWLTASRLVMR
The protein stability index of the first is lower: 0.627 ± 0.025 for the first, 0.714 ± 0.043 for the second.

LQATFRRHLNLV and LQFGHGDFRSTV are within error of each other in protein stability index: 0.655 ± 0.032 for the first, 0.713 ± 0.093 for the second.

LQRAPKLLPSSS and LQRHSSQQTTSA are within error of each other in protein stability index: 0.683 ± 0.03 for the first, 0.658 ± 0.025 for the second.

Compared with LQVTLALSAALP, LRAVRDSLMSQC is lower in protein stability index: 0.802 ± 0.079 for the first, 0.681 ± 0.033 for the second.

LRCNAQSMICLT and LRCPLMYDIFYN are within error of each other in protein stability index: 0.633 ± 0.081 for the first, 0.726 ± 0.074 for the second.

Going from LRCRLFIWDGVK to LRDYLLWRECTL, the protein stability index falls from 0.809 ± 0.038 to 0.692 ± 0.033.

Going from LRFLLLRFILRS to LRGCGSGAGWFL, the protein stability index rises from 0.472 ± 0.048 to 0.667 ± 0.028.

LRGILGTLINGV and LRGLRALRGDLT are within error of each other in protein stability index: 0.609 ± 0.097 for the first, 0.654 ± 0.05 for the second.

Going from LRGVAIAARYPR to LRIQKIVSGALM, the protein stability index falls from 0.766 ± 0.02 to 0.707 ± 0.01.

LRLLCVSGSSVR and LRLSCGDRFRVG are within error of each other in protein stability index: 0.638 ± 0.065 for the first, 0.557 ± 0.019 for the second.

LRLTTNTGCTIS and LRPKESQEYIHR are within error of each other in protein stability index: 0.611 ± 0.023 for the first, 0.652 ± 0.079 for the second.

Going from LRPLQPCGLIQC to LRQKKIELPIEP, the protein stability index rises from 0.52 ± 0.022 to 0.687 ± 0.02.

Compared with LRRPAFCAFTST, LRRSPPNPLLKA is lower in protein stability index: 0.715 ± 0.024 for the first, 0.634 ± 0.021 for the second.

Compared with LRRSRGTVWRWY, LRSIAVLPPSPF is higher in protein stability index: 0.5535 ± 0.0032 for the first, 0.695 ± 0.039 for the second.

Going from LRSPPSLLPLSL to LRSQDFKGHLRT, the protein stability index falls from 0.7056 ± 0.0033 to 0.6606 ± 0.0029.

Going from LRSRTPPSPHFP to LRTLVARWIVGQ, the protein stability index falls from 0.626 ± 0.0069 to 0.515 ± 0.021.

Going from LRVFKVCSGISG to LRVGMSSASVFQ, the protein stability index rises from 0.642 ± 0.045 to 0.733 ± 0.03.

Compared with LRVNGIVTVSGF, LSAVHYNRAVFA is lower in protein stability index: 0.749 ± 0.13 for the first, 0.5141 ± 0.0049 for the second.

LSAVRFGRVWGG and LSCWLGCVALGW are within error of each other in protein stability index: 0.6959 ± 0.0043 for the first, 0.718 ± 0.13 for the second.

LSEVFLSMNVVL and LSFLYCSDNKVA are within error of each other in protein stability index: 0.676 ± 0.06 for the first, 0.6562 ± 0.006 for the second.

Compared with LSGLQGPGVSCC, LSHLILPPSSPS is higher in protein stability index: 0.642 ± 0.021 for the first, 0.677 ± 0.013 for the second.

First: LSIFFCRCFSSF
Second: LSIGGDLLFLRE
The protein stability index of the first is lower: 0.59 ± 0.021 for the first, 0.716 ± 0.067 for the second.

First: LSKASNTLVDSD
Second: LSLFMAAREVFP
The protein stability index of the first is higher: 0.755 ± 0.058 for the first, 0.664 ± 0.018 for the second.

First: LSLGSSATLTFQ
Second: LSLLPPLCFPSH
The protein stability index of the first is lower: 0.698 ± 0.03 for the first, 0.8215 ± 0.0043 for the second.

LSLTCLSSPPPA and LSLVDFSTLWFF are within error of each other in protein stability index: 0.654 ± 0.034 for the first, 0.611 ± 0.08 for the second.

Going from LSPAAPTHAYAA to LSPALSFVLTIW, the protein stability index falls from 0.72 ± 0.1 to 0.497 ± 0.011.

LSPFGTLLNAPP and LSPGQVLPWGVL are within error of each other in protein stability index: 0.782 ± 0.075 for the first, 0.643 ± 0.069 for the second.

LSPLPPPAGHLP and LSPPPLSPPSHP are within error of each other in protein stability index: 0.646 ± 0.096 for the first, 0.723 ± 0.0092 for the second.

LSQFQEPPFYLF and LSQISTQRPNQV are within error of each other in protein stability index: 0.708 ± 0.044 for the first, 0.694 ± 0.06 for the second.

First: LSRHSRSILPSL
Second: LSRSTSYILIII
The protein stability index of the first is higher: 0.726 ± 0.056 for the first, 0.515 ± 0.039 for the second.

First: LSRWGKTKGKKW
Second: LSSARPLAGVHT
The protein stability index of the first is lower: 0.62 ± 0.014 for the first, 0.675 ± 0.03 for the second.

LSSCPPPALRLP and LSSGSCLESPFT are within error of each other in protein stability index: 0.715 ± 0.013 for the first, 0.732 ± 0.08 for the second.

Going from LSSLYSSLTFFL to LSSNSTTSATYR, the protein stability index rises from 0.651 ± 0.014 to 0.722 ± 0.016.

LSSSVIFALPLP and LSSTGFDLWSLL are within error of each other in protein stability index: 0.767 ± 0.034 for the first, 0.769 ± 0.067 for the second.

LSTAWFYFSLLF and LTCRGESYAGLI are within error of each other in protein stability index: 0.635 ± 0.072 for the first, 0.651 ± 0.014 for the second.

LTFWLGSLGLWG and LTHLPSLCVRRI are within error of each other in protein stability index: 0.72 ± 0.019 for the first, 0.647 ± 0.06 for the second.

LTHTVLVGSALN and LTIEFSARLGNA are within error of each other in protein stability index: 0.647 ± 0.024 for the first, 0.663 ± 0.03 for the second.

LTLPLFPPPCSV and LTPEPPRPPTPY are within error of each other in protein stability index: 0.648 ± 0.018 for the first, 0.699 ± 0.033 for the second.

Compared with LTPSVRDKRPPI, LTPTLLTNPQAD is lower in protein stability index: 0.759 ± 0.055 for the first, 0.678 ± 0.022 for the second.

LTRFQPTPCLPP and LTVVGGVVGKVG are within error of each other in protein stability index: 0.691 ± 0.0074 for the first, 0.689 ± 0.037 for the second.

Compared with LVAAEARIGFAV, LVCLLFTNKVMH is lower in protein stability index: 0.7 ± 0.012 for the first, 0.599 ± 0.011 for the second.

LVEARQGAFLVV and LVEEGKKLTSKF are within error of each other in protein stability index: 0.692 ± 0.029 for the first, 0.711 ± 0.078 for the second.

Compared with LVGALISHSILR, LVGRVGAVAGPA is higher in protein stability index: 0.629 ± 0.019 for the first, 0.691 ± 0.028 for the second.

LVHGWERPSRVR and LVIGTTLSSLML are within error of each other in protein stability index: 0.661 ± 0.021 for the first, 0.742 ± 0.066 for the second.

LVLDVLDLRRHC and LVLLDQISVPLI are within error of each other in protein stability index: 0.649 ± 0.012 for the first, 0.6474 ± 0.00096 for the second.

LVLLFGIGTTHW and LVLRLLRGFLPK are within error of each other in protein stability index: 0.65 ± 0.049 for the first, 0.681 ± 0.014 for the second.

Going from LVNVIPSHERAT to LVPSPLIFPSLG, the protein stability index rises from 0.656 ± 0.037 to 0.783 ± 0.012.

Compared with LVRCPLGVPGAS, LVSGFRYPFSCL is lower in protein stability index: 0.7085 ± 0.0065 for the first, 0.611 ± 0.037 for the second.

LVSLVGVGWGCG and LVVGNQFIRRSD are within error of each other in protein stability index: 0.729 ± 0.023 for the first, 0.685 ± 0.023 for the second.

Compared with LVVPNFPLSFSV, LVVSLGLFLLRH is lower in protein stability index: 0.732 ± 0.055 for the first, 0.549 ± 0.045 for the second.
